The results in this text go back to IntAct's records for PubMed 31515488.

B1: Zinc finger protein 655 (Homo sapiens), Q8N720 (parent)
chain: MEEIPAQEAAGSPRVQFQSLETQSECLSPEPQFVQDTDMEQGLTGDGETREENKLLIPKQKISEEVHSYKVRVGRLKHDITQVPETREVYKSEDRLERLQEILRKFLYLEREFRQITISKETFTSEKNNECHEPEKSFSLDSTIDADQRVLRIQNTDDNDKYDMSFNQNSASGKHEHLNLTEDFQSSECKESLMDLSHLNKWESIPNTEKSYKCDVCGKIFHQSSALTRHQRIHTREKPYKCKECEKSFSQSSSLSRHKRIHTREKPYKCEASDKSCEASDKSCSPSSGIIQHKKIHTRAKSYKCSSCERVFSRSVHLTQHQKIHKEMPCKCTVCGSDFCHTSYLLEHQRVHHEEKAYEYDEYGLAYIKQQGIHFREKPYTCSECGKDFRLNSHLIQHQRIHTGEKAHECNECGKAFSQTSCLIQHHKMHRKEKSYECNEYEGSFSHSSDLILQQEVLTRQKAFDCDVWEKNSSQRAHLVQHQSIHTKENS
partner: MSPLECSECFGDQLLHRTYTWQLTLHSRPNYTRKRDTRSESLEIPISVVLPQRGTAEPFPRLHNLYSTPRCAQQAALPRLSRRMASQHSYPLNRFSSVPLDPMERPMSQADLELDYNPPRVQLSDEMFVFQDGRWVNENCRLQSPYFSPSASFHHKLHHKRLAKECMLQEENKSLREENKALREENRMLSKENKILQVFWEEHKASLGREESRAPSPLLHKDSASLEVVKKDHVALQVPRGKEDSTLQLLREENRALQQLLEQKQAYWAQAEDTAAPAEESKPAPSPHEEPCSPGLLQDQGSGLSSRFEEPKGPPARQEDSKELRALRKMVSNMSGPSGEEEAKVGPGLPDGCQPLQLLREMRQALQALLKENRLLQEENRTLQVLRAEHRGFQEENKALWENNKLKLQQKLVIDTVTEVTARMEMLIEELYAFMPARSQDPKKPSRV
B2: Dolichyl-diphosphooligosaccharide--protein glycosyltransferase subunit 1 (Homo sapiens), P04843 (parent)
chain: MEAPAAGLFLLLLLGTWAPAPGSASSEAPPLINEDVKRTVDLSSHLAKVTAEVVLAHLGGGSTSRATSFLLALEPELEARLAHLGVQVKGEDEEENNLEVRETKIKGKSGRFFTVKLPVALDPGAKISVIVETVYTHVLHPYPTQITQSEKQFVVFEGNHYFYSPYPTKTQTMRVKLASRNVESYTKLGNPTRSEDLLDYGPFRDVPAYSQDTFKVHYENNSPFLTITSMTRVIEVSHWGNIAVEENVDLKHTGAVLKGPFSRYDYQRQPDSGISSIRSFKTILPAAAQDVYYRDEIGNVSTSHLLILDDSVEMEIRPRFPLFGGWKTHYIVGYNLPSYEYLYNLGDQYALKMRFVDHVFDEQVIDSLTVKIILPEGAKNIEIDSPYEISRAPDELHYTYLDTFGRPVIVAYKKNLVEQHIQDIVVHYTFNKVLMLQEPLLVVAAFYILFFTVIIYVRLDFSITKDPAAEARMKVACITEQVLTLVNKRIGLYRHFDETVNRYKQSRDISTLNSGKKSLETEHKALTSEIALLQSRLKTEGSDLCDRVSEMQKLDAQVKELVLKSAVEAERLVAGKLKKDTYIENEKLISGKRQELVTKIDHILDAL
B3: "N-acyl-aromatic-L-amino acid amidohydrolase (carboxylate-forming)" (Homo sapiens), Q96HD9 (parent)
chain: MCSLPVPREPLRRVAVTGGTHGNEMSGVYLARHWLHAPAELQRASFSAVPVLANPAATSGCRRYVDHDLNRTFTSSFLNSRPTPDDPYEVTRARELNQLLGPKASGQAFDFVLDLHNTTANMGTCLIAKSSHEVFAMHLCRHLQLQYPELSCQVFLYQRSGEESYNLDSVAKNGLGLELGPQPQGVLRADIFSRMRTLVATVLDFIELFNQGTAFPAFEMEAYRPVGVVDFPRTEAGHLAGTVHPQLQDRDFQPLQPGAPIFQMFSGEDLLYEGESTVYPVFINEAAYYEKGVAFVQTEKFTFTVPAMPALTPAPSPAS
B4: Protein BANP (Homo sapiens), Q8N9N5-2 (parent)
chain: MMSEHDLADVVQIAVEDLSPDHPVVLENHVVTDEDEPALKRQRLEINCQDPSIKSFLYSINQTICLRLDSIEAKLQALEATCKSLEEKLDLVTNKQHSPIQVPMVAGSPLGATQTCNKVRCAVPGRRQNTIVVKVPGQEDSHHEDGESGSEASDSVSSCGQAGSQSIGSNVTLITLNSEEDYPNGTWLGDENNPEMRVRCAIIPSDMLHISTNCRTAEKMALTLLDYLFHREVQAVSNLSGQGKHGKKQLDPLTIYGIRCHLFYKFGITESDWYRIKQSIDSKCRTAWRRKQRGQSLAVKSFSRRTPNSSSYCPSEPMMSTPPPASELPQPQPQPQALHYALANAQQVQIHQIGEDGQVQVIPQGHLHIAQVPQGEQVQITQDSEGNLQIHHVGQDGQVLQGAQLIAVASSDPAAAGVDGSPLQGSDIQVQYVQLAPVSDHTAGAQTAEALQPTLQPEMQLEHGAIQIQ
partner: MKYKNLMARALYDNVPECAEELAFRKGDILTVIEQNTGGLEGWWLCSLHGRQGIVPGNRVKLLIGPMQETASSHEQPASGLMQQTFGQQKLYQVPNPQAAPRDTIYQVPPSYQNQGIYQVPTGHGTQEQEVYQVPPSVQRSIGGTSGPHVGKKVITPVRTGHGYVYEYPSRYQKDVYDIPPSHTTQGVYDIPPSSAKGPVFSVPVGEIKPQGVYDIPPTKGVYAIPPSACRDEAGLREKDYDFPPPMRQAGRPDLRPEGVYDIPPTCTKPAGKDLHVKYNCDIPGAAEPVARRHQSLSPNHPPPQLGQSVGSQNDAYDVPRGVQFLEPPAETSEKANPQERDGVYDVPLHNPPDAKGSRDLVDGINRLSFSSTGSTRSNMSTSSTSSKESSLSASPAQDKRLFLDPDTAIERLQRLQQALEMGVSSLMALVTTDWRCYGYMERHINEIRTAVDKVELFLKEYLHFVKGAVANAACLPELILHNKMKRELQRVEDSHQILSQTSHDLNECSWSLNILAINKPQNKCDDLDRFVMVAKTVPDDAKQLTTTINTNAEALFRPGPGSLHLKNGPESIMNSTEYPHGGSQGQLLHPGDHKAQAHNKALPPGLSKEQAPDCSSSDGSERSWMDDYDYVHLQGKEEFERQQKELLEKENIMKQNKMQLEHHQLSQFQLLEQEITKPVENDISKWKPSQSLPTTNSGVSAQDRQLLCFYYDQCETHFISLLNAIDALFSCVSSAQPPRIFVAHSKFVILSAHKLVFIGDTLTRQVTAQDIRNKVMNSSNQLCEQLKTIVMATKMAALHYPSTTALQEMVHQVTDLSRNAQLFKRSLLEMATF
B5: Flavin-containing monooxygenase 3 (Homo sapiens), P31513 (parent)
chain: MGKKVAIIGAGVSGLASIRSCLEEGLEPTCFEKSNDIGGLWKFSDHAEEGRASIYKSVFSNSSKEMMCFPDFPFPDDFPNFMHNSKIQEYIIAFAKEKNLLKYIQFKTFVSSVNKHPDFATTGQWDVTTERDGKKESAVFDAVMVCSGHHVYPNLPKESFPGLNHFKGKCFHSRDYKEPGVFNGKRVLVVGLGNSGCDIATELSRTAEQVMISSRSGSWVMSRVWDNGYPWDMLLVTRFGTFLKNNLPTAISDWLYVKQMNARFKHENYGLMPLNGVLRKEPVFNDELPASILCGIVSVKPNVKEFTETSAIFEDGTIFEGIDCVIFATGYSFAYPFLDESIIKSRNNEIILFKGVFPPLLEKSTIAVIGFVQSLGAAIPTVDLQSRWAAQVIKGTCTLPSMEDMMNDINEKMEKKRKWFGKSETIQTDYIVYMDELSSFIGAKPNIPWLFLTDPKLAMEVYFGPCSPYQFRLVGPGQWPGARNAILTQWDRSLKPMQTRVVGRLQKPCFFFHWLKLFAIPILLIAVFLVLT
partner: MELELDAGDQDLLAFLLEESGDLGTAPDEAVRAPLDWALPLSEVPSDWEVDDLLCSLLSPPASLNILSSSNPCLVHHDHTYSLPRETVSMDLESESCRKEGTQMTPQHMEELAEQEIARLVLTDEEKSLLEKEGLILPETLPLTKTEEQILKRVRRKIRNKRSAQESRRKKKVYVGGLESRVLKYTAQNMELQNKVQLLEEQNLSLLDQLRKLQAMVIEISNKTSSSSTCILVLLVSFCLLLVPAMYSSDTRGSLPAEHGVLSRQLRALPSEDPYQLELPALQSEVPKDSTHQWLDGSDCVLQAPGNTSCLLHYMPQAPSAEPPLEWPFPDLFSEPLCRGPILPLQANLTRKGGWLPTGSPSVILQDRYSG

Variants of B1 are the subject of one assay. Particulars: with cby2_human CBY2, Q8NA61.
In the case of C466G, the “effect of a mutation on the interaction” value is on record as “with no effect”.

The variants in a further assay derive from B2. As to conditions: with ubql1_human UBQLN1, Q9UMX0.
ubql1_human UBQLN1, Q9UMX0, sequence (Q9UMX0 whole entry): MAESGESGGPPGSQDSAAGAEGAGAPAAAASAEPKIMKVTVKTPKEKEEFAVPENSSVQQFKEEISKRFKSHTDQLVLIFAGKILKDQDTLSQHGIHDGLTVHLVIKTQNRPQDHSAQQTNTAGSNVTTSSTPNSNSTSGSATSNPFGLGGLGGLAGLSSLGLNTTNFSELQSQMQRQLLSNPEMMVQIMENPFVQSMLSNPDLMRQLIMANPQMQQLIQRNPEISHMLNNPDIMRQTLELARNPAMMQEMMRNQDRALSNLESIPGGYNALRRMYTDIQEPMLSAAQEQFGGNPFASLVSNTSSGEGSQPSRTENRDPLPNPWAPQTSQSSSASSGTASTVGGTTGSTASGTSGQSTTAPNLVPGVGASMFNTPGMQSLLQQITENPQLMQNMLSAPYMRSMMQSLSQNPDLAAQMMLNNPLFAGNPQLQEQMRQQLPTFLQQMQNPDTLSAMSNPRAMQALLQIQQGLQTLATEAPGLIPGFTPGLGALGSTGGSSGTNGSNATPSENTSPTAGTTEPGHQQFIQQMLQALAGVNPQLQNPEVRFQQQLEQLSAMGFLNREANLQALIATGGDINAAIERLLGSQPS
Consider F203L, for which the “effect of a mutation on the interaction” value is “disrupting interaction strength”.

In another assay the parent is B2. Particulars: with sgta_human SGTA.
For the variant F203L, the “effect of a mutation on the interaction” value is listed as “with no effect”.

The variants in another assay derive from B3. Particulars: with gors2_human GORASP2, Q9H8Y8.
With R8Q, the “effect of a mutation on the interaction” value is “with no effect”.

The variants in another assay derive from B4. As to conditions: with casl_human NEDD9, Q14511.
Turning to A162V, the “effect of a mutation on the interaction” value is given as “with no effect”.

In a further assay the parent is B5. Particulars: with creb3_human CREB3, O43889.
As to E158K, the “effect of a mutation on the interaction” value is “with no effect”.
